Assay results: patent US6274134A, “Human cell adhesion protein AAMP-1 and uses thereof” (National Institutes of Health, priority 1993, dated 2001)

Assay: H3-heparin binding assay, recombinant AAMP blotted onto Immobilon-P
Details: tritiated heparin 2.5 U/mL
Procedure: Heparin binding assays utilizing competition of tritiated heparin (heparin sodium salt, [^3 H(G)]-, NEN DuPont), with unlabeled heparin, were performed for recombinant AAMP, solubilized P189 (immobilized on CovaLink™ plates), and for aggregated P189 in 0.1% BSA-DMEM solutions. Recombinant AAMP in bacterial lysate and bovine serum albumin in equal amounts were electrophoresed for gel purification, and blotted onto Immobilon-P™. These blots were incubated 3 hours with tritiated heparin, 2.5 U/mL (10.7 uCi/mL) at room temperature, alone and with increasing amounts of unlabeled heparin (0.125-0.25 U/mL) for competition. Following 3 washes, the bands of AAMP recombinant protein and BSA (triplicates for each heparin concentration) were cut from the blotted Immobilon P strips, placed in scintillation vials, and counted for comparisons. Solubilized P189 (6.25 ug/mL) was immobilized on CovaLink™ plates, as described previously, and incubated one hour at room temperature with tritiated heparin, […] (0.213 uCi/mL), alone and with increasing amounts of unlabeled heparin (50-500 U/mL) for competition. Following three washes, the plate wells, in duplicates or triplicates for each heparin concentration, were placed in scintillation vials and counted. In separate assays, aggregates of P189 (200 ug/mL in 0.1% BSA-DMEM) were incubated one hour on a rocker at room temperature with tritiated heparin (0.05 U/mL) alone and with increasing amounts of unlabeled heparin (0.05-5 U/mL) for competition. Following centrifugation,the precipitate was washed with 0.1% BSA-DMEM, centrifuged again, and then transferred to scintillation vials for counting. The background cpm/umole protein levels for assays with AAMP recombinant protein competed with unlabeled heparin, were standardized to AAMP recombinant protein's average background cpm/umole protein with no labeled heparin present.

B1: Recombinant AAMP: Recombinant human cell adhesion protein AAMP, gel purified from bacterial lysate (SEQ ID NO:7) (protein)
chain: GPEKWIRRLRRMESESESGAAADTPPLETLSFHGDEEIIEVVELDPGPPDPDDLAQEMEDVDFEEEEEEEGNEEGWVLEPQEGVVGSMEGPDDSEVTFALHSASVFCVSLDPKTNTLAVTGGEDDKAFVWRLSDGELLFECAGHKDSVTCAGFSHDSTLVATGDMSGLLKVWQVDTKEEVWSFEAGDLEWMEWHPRAPVLLAGTADGNTWMWKVPNGDCKTFQGPNCPATCGRVLPDGKRAVVGYEDGTIRIWDLKQGSPIHVLKGTEGHQGPLTCVAANQDGSLILTGSVDCQAKLVSATTGKVVGVFRPETVASQPSLGEGEESESNSVESLGFCSVMPLAAVGYLDGTLAIYDLATQTLRHQCQHQSGIVQLLWEAGTAVVYTCSLDGIVRLWDARTGRLLTDYRGHTAEILDFALSKDASLVVTTSGDHKAKVFCVQRPDR
tritiated heparin binding, cpm above background per umole protein, with competition by equal amount of cold heparin (1:1 unlabeled heparin, 3 assays, S.D.): 2139 cpm/umole protein | tritiated heparin binding, cpm above background per umole protein, without competition (6 assays, S.D.): 9134+/-2699 cpm/umole protein | tritiated heparin binding, times more than background (BSA) (approx. 15 ug protein on Immobilon-P, 6 assays): 2.2+/-0.4 times
